Experimental data taken from the DeepSol protein solubility set.

Assay: soluble on expression in E. coli; label from the status in PepcDB or PDB records

Sequence	soluble on expression in E. coli
MNNVLILLDNPDDWKPYCETKSILTVSDYLKNKPVEKDRKLVINLSNDYSYNSEGYYCSLLAQTRGQRVIPDVDIINKLETGTGIRMDRSLQALCYQWIQKNGIKSDIWYLNIYFGKCREKGLERVARFIFENYPCPLLRVALNTHPKNQIESIQFLPLNRLDDEEQDFFANTLDNFNKKIWRAPKSAKAPRYSLAVLIDPKEKFPPSNKGALHKLSEVAKKMNIHVEMITEDDAMRLLEFDALFIRTTTSLNHYTFHLSQLAAQNGMVVIDDPLSIIRCTNKVYLKELFEKERIPAPKSTLIFQSNENSFEQISEQVGAPFILKIPDGSYSIGMKKVSNEEELKTSLELLFEKSAILLAQAFTPTEFDWRVGLLNGVPLYACKYYMAKGHWQIYCHYDSGRSRCGLVDTIPIYQVPRVVLDTAIKAANLIGKGLYGVDLKMVDDKAYVIEINDNPSIDHELEDAIIGDEMYYRLLNHFEQALEMKHY	not soluble
MSLAEYVYTMSRVSKIVPPKRQILKDISLSFFPGAKIGVLGLNGAGKSTLLRIMAGIDKDIDGEARPQPGLKVGYLPQEPKLDESKTVREVVEEAVADVAYALKRLDEVYAAYAEPDADFDALAKEQGELEALIQAKNGHNLDNALERAADALRLPEWDAQVKYLSGGERRRVAICRLLLENPDMLLLDEPTNHLDAESVAWLERFLVDYAGTVVAITHDRYFLDNAAGWILELDRGEGIPWQGNYTSWLEQKDARLKQEASEGHHHHHH	not soluble
MALTNAQILAVIDSWEETVGQFPVITHHVPLGGGLQGTLHCYEIPLAAPYGVGFAKNGPTRWQYKRTINQVVHRWGSHTVPFLLEPDNINGKTCTASHLCHNTRCHNPLHLCWESADDNKGRNWCPGPNGGCVHAVVCLRQGPLYGPGATVAGPQQRGSHFVV	soluble
MTDVTSPVVDEKPCFGANPQIFKLGLGKQHILAHDIGQGSQCRNLPTCRCEGLDLHFWRKMCKNCGCRMDEHDVVLPNEFDHAQIVIGRLFGAREHFEKVLTKPGMYKPNEQNETKENNMMSTRSQPTAVYNYKMASSDSESERGGSNNKENVQYAWAPLPDKNLVSRYMKALPEDERPLVGSKGEQNRKSRLQFQLPLYDCNVEDARFVEEKDVKTLQNFVENVRNNVIGVGRVVEIGKDSDNYGDNENTNEFEKSMTAALKGLKIGETDCKDCNEMMETGDIGVECHHHSTTDTYHPNCFRCETCRQLLVDNIYFFYKNKYYCGRHYADQLYPRCAGCDELIFANEYTFAEEKSWHFDHFACYKCDFKLGGSRYMTRDENPFCLDCYLKHFAKTCDTCQSKIGPDEKRLNYNETHWHAEERCFQCVQCKMNLIGKKFMLKNHKLLCSSQCKANYNSANPDDQL	not soluble
MREVKAFVTQDIPLYHNLVMKHIPGADPELVLLNHYYEELDRIPLFEMTRAEINKLLAELGFYKKDHPEDQVPEEFRFSPAKDSPFEGRQSSTAAPETTEPSDSQHTDL	soluble
MGSDKIHHHHHHAGCKTSKVVKTTPVEPAYLSSKLQLTVPNKNGSMTVSGSMKMKSGERIQLSVLMPVFRSEVMRMEVTPDEVLLIDRMNKRYVRATRDELKGILPENADFDRLEKLLFKASLPGEKKELTGRELGIPSLEKAKVRLSDFSTAEFELIPTEVSSRYTQVALEDLLKMLMKL	not soluble
MGSDKIHHHHHHMKKNGTTNSNGGNLGFEADLFKAADKLRGNMEPSDYKHVALGLIFLKYISDAFEARHQALLAEDPRAAEDRDEYLADNVFWVPKEARWSHLRANARRPEIGLLIDEAMRAIEKENESLKGVLPKDYARPALNKVMLGELIDLISGIALGEEGDRSKDILGRVYEYFLGQFAGAEGKRGGEFYTPRSVVRVLVEMLEPYHGRVYDPCCGSGGMFVQSEKFVQEHGGRIGDIAIYGQESNYTTWRLCKMNLAVRGIDADIRWNNEGSFHKDELRDLKADFILANPPFNISDWGGERLREDVRWSFGVPPVGNANYAWLQHIHHHLAPNGTAGVVLANGSMSSNQSGEGEIRKAMVEADVVDCMVALPGQLFYSTQIPACLWFLARNKNPGKGLRDRRGQVLFIDARKLGVLVDRTRRELTDAEIQKIADTYHAWRGEPDAGEYQDVPGFCKSATLEEIRKHGFVLTPGRYVGAAQQEDDGEPFEEKMARLAAQWREQRAAAAKLDAAIEANLKELGYGG	not soluble
MGSDKIHHHHHHMHIAPHDNQNKPIVDAEHDLVPLNYFNIVKLRRGEVFEYAVPGYETCVVPATGTVDIDVEGAIYPDLGNRTEDVWDGEPEGVYVPVGAKVRITCKTDVTETFIAGAKYDKVLEPFDVRADALDVVQYGSDDTKTHRKIKHILGANHHDKVGRLLVSELYTVGEGGWSGFPSHKHDTDRLPDETRHDETYNFRFKPNYGSGVQMLQREDNQPGDAYHIMDGSTVLIDKGYHPCAVLPGYQMYYFTILGGLSQRSLKQYFQPTHAEQLHTIPGIMDMVAKFK	not soluble
MSKLTAAYNKTRECVVTRSKIMMGYPEARYPTIPKILKKTADFQKLEGSKDRIAFTLSQEPIADKKCTEMIKNVLLEQFQDTDIPANYIAVSMALPNFKIGQNCHDFQPLDWYKNIKGYFTYKKITEQVQAAYFNDEAGNQFLAGVCYYATPAGKWVAKLQTEQTLLRFEFQKAEPFPLNSKSRFDTKAFKKFARYGRYCETEGCRVLVWVGKADGQIVHLNYHPVYCMQWTKGCAECAKDHFEYMWIAPEEPVVQKSKEEDYILKAPEDKDLSDFDQLSDVLNVDAISLH	not soluble
MSLLKKIERAQQLLKKEAAVFRCPTCHEPMHLEGVGLICQQRHQFDLSKKGTLYFLNHGVQTEYNKKMFTSRGKMIQSGMYAPVLNKIMHYLPQNKTVVDVGCGEGSFLAELSQAGLSGLKIGFDLSKEGIYLASNQPIDAFWCVADLTNLPFANEGLDTILNIFSPSHYQEFRRVLKADGTVIKIIPEENYLKELRAAFYPNDEKKQSYSNQKVVQRFAEELAVEVDERITYCFDIPEERRLDLLEMSPLEWQVSQEVKAELQQRPLEKITIDVRLLVGRKREGHHHHHH	soluble
NTRGMALFADGGIVGTKPYAASGSYIKKMSDYCKGCHYDNKARSGEGSCPFNSLYWRFMDKHEKRLATNPRIGMIFRSWDNMEASQRQAILDT	not soluble
MAREAKKDPNELTVEQKLKTLFQLQTMLSKIDEIKTLRGELPLEVQDLEDEIAGLSTRIDKIKAEVDELKSAIAGKRVEIETAKASVEKYKSQQDNVRNNREYDFLTKEIEFQSLEIELCEKRIKEFSADREEKEAEVVKNEQILSERQKDLEQKKGELDEIISETKQEEEKLRDKAKDLETKIEPRLLQSFKRIRKNSRNGLGVVYVQRDACGGCFNKIPPQRQLDIRSRKKVIVCEYCGRIMIDPELAGVQIEHKVEEAPATTTKRAIRRKTAE	not soluble
MKRYTVKDIEALLPKLGADDPRWEMLRQDERKSVQALLARFERQKARRHAIEQRWEELMRYERELYAAGVRRIAGIDEAGRGPLAGPVVAAAVILPKDAYLPGLDDSKRLTPEKREALFAQIEACAVAIGIGIVSAAEIDERNIYEATRQAMAKAVNALSPPPEHLLVDAMAVPCPLPQQRLIKGDANSASIAAASVIAKVTRDRWMKELDRRYPQYGFARHMGYGTPEHFEAIRRYGVTPEHRRSFAPVREVLKASEQL	soluble
GAMGNLRLIGVPESDVENGTKLENTLQDIIQENFPNLARQANVQIQEIQRTPQRYSSRRATPRHIIVRFTKVEMKEKMLRAAREKGRVTLKGKPIRLTVD	soluble
AIAEAKTLGIATPRKPVLSVSARKLKDNAADWHNLILKWDSLSDKGFTTASSIANLKVSLLSKEKVELESSSPASMEEEEKTNLDYDKGLEALCEELQAILDGLTKIQMKMEKLSSTTKGICELENYHYREESSRPPLFHTWPTAFFYEVSRRLSEAYKKELLLKHTIGAELAHTADRNLSLTYLSMWLHQPYIESNSKLQLESMLLETGHRAL	soluble
SLHELSLCQSAVEIIQRQAEQHDVKRVTAVWLEIGALSCVEESAVRFSFEIVCHGTVAQGCDLHIVYKPAQAWCWDCSQVVEVHQHDAQCPLCHGERLRVDTGDSLIVKSIEVE	soluble
MALKAQNTISGKEGRLFLDGEEMAHIKTFEANVEKNKSEVNIMGRRMTGHKTTGANGTGTATFYKVTSQFVLIMMDYVKKGSDPYFTLQAVLDDASSGRGTERVTLYDVNFDSPKIAGLDVDSEALEEEVPFTFEDFDVPEQLKSTFLEHHHHHH	soluble
VVQGTVKPHASFNSREDAETLRKAMKGIGTDEKSITHILATRSNAQRQQIKTDYTTLFGKHLEDELKSELSGNYEAAALALLRKPDEFLAEQLHAAMKGLGTDKNALIDILCTQSNAQIHAIKAAFKLLYKEDLEKEIISETSGNFQRLLVSMLQGGRKEDEPVNAAHAAEDAAAIYQAGEGQIGTDESRFNAVLATRSYPQLHQIFHEYSKISNKTILQAIENEFSGDIKNGLLAIVKSVENRFAYFAERLHHAMKGLGTSDKTLIRILVSRSEIDLANIKETFQAMYGKSLYEFIADDCSGDYKDLLLQITGH	soluble
MSKLEAILSQEVEAEIQALLQEAEAKAEAVKREAEEKAKALLQARERALEAQYRAALRRAESAGELLVATARTQARGEVLEEVRRRVREALEALPQKPEWPEVVRKLALEALEALPGAKALVANPEDLPHLEAMARERGVELQAEPALRLGVRAVGAEGKTQVENSLLARMDRAWDAMSSKVAQALWG	soluble
MAHHHHHHMSSYRSDVDPFKEIRVLPREAAQLRHHLSRINHALQTKYFVAAELSELALQPDRSDEFLALYKAEIYRVVAKLNMNAKKQYTVTVDPLRLTTGFEFKRGADRKDNLGTAVTAATVEGLTSPDVHAKWTASLVETSRLLAQQHAINPNCQALSSALQSTPSSQQTQGLNGGGGAAAVGSDVIGDASTCAIDSDVRKANKESFLFSTPPEFAGFAPSGASPGAP	not soluble
MCEFKDFRRNIPCFKEYDENSFIGKWYDDGVWDDEEYWKLENDLIEVRKKYPYPMDIPRDIVIGIGTIIDFLMVQNWKLFEIKASTWLPKSVKINERYERFRVMLRYIFTDLDVEDWKFFYFPIQHSKGRLRRKV	not soluble
MNPISRVAIIGECMVELKKHDGVLQQGFGGDTLNTAVYLSRLTKQHGVETSYVTGLGHDPFSREMLTAWREEGINTDMVYLSEDKLPGIYAIETAEDGERSFFYWRNDAAAKYWLRERALLSLVKDLCQHQMIYLSGISLAIISDDCRQMLIELLTMCRKEGVKIAFDNNFRPKLWPNIEQARDFYSKILSVTDMAFLTFDDEVMLWGDKHE	not soluble
MFWKFLVSGLVGSACSAYHRGPTNVSLALDPPTLSIIMDPSKDIVPIRAVIVGGGYAGSKTAYQLDSMFAVTHIDEKNFYELTNDIIPIITNPWKEDVNPKACRRMMVLHRYYLKRSNVVTGTVIGVDAKQVYLRDGRTVPYDLLFLATGERKPFPFQTRERTISGRVQELKRFNEFLQSCKKVAVVGGGPVGTSLAHDLASTRPDLQVHLFHQRAELLPRLPGVCRRHAQEKLLSNPNLHLHLLTRVTDIDGVVLPSNGDKAASSSSPARHSCAGQLVNPPTSNAAVAESSLTLATTNAPWWRSLLNTVWPRRGVVPDQYSVHYDTLQSKVQQQPSILQQVYYGKRDEVAECGVVQARGVEEGFDYVFALTGDTPRPIQCDELEGRSRKLPNILREHETRDGHYRVSTLMQFLDHPNIFGVGRCTNLPVMRGYGSSDIETRTLFRELNSVISNPTTMFLHSRDGVQLAHMRIPRIHVRLGVDDAVGCTPWSGGMTGVSSVHEFMQDRSYLLREFQKPVFYKQQDQAKVKQRMSQWMEEEITDIVDFSHC	not soluble
MFMIKVITPETNHPKEGGILSALVSIYNCTIHIRKPRFTADQYKKYLHDHNQLLSHFVLHEHHSLAKEFPVMGVHLKELDRINPAQVHPDIKIISTSIHSIADAGNLSHPFEYIFYSPLFQSISKENYGTNNSLADLKKTVSELKEQTGIPIIGLGGIYEANIDLVKKSGFDGAALLGAVWVQSDPLAAFGRIASMILEHHHHHH	not soluble
